Data: US20250084178A1, “ANTI-CD39 ANTIBODIES AND USE THEREOF” (ARCUS BIOSCIENCES, INC., priority 2022, published 2025)
Entries after “also recorded” stand apart in the source; their conditions may differ.

Legend:
[1] = target: T1, CD39 enzymatic activity (Homo sapiens, UniProt P49961); assay: Ex vivo intratumoral CD39 enzymatic activity (Kinase-Glo Plus); type: in vivo, mouse; settings: MC38 and 4T1 tumor cell suspensions, 20 μM ATP
T1 construct: from tissue; host or cells: hCD39KI mice (C57BL/6 with MC38, BALB/c with 4T1): tumours, spleen, whole blood / WBCs, tumour-draining lymph nodes
T1 sequence (P49961 1-510): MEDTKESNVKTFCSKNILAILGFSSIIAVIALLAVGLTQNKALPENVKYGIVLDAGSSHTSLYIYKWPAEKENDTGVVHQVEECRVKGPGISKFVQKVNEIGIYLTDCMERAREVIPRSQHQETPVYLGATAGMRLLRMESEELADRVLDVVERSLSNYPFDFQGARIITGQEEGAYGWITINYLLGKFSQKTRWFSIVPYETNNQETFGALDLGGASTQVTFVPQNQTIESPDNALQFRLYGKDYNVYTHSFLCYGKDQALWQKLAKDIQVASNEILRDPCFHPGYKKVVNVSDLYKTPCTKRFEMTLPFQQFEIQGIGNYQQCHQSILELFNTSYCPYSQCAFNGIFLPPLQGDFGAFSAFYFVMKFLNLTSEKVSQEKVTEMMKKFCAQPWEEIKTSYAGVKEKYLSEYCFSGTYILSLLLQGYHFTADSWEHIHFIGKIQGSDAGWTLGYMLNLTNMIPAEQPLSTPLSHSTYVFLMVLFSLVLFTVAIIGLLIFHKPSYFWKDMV
Protocol: Intratumoral and peripheral CD39 enzymatic activity was also evaluated ex vivo. Upon study completion, tumor samples obtained after sacrificing C57BL/6 hCD39KI MC38 and BALB/c hCD39KI 4T1 mice were placed in RPMI+20% FBS+250 μg/ml collagenase D (Millipore Sigma, Cat. No. 11088858001)+100 KU/ml DNAse 1 (Millipore Sigma Cat. No. D5025-150KU) and enzymatically digested using gentleMACS™ Octo Dissociator to obtain a single cell suspension. […] The cells were then treated with 20 μM ATP and incubated for an additional 30 minutes at 37° C., 5% CO2. At the end of the incubation period, the 96-well plate was spun at 1000 rpm for 3 minutes and the supernatant was collected. 2× Kinase-Glo® Plus (Promega, Cat. No. V3771) was then added to the supernatants. ATP levels in the supernatants were then measured by detecting luminescence using Flexstation® 3 microplate reader. Data are presented as relative luminescence units (RLU).

[2] = target: T2, human CD39 (Homo sapiens, UniProt P49961); assay: Enzyme histochemistry of tumors and spleens from C57BL/6 hCD39KI MC38 mice; design: species or system mouse; settings: tumors and spleens treated in vivo, end of study
T2 sequence (P49961 1-510): T1 sequence (P49961 1-510)
Protocol: Tumors and spleens from C57BL/6 hCD39KI MC38 mice at the end of the study were additionally analyzed for human CD39 expression by immunohistochemistry (IHC) and evidence of anti-CD39 antibody enzymatic blocking activity by enzyme histochemistry (EHC). Briefly, frozen OCT-embedded tumor or spleen samples were sectioned at 4 um thickness, mounted on positively charged microscope slides, air dried for 15 minutes, then placed in 4% paraformaldehyde (PFA) fixative for 20 min. After fixation, the slides were washed in Tris-buffered saline and IHC was performed on an automated Leica Bond Rx platform starting with blocking of endogenous peroxidases, followed by incubation with a rabbit anti-CD39 mAb (Abcam, EPR20627), and detected with an anti-rabbit HRP polymer system followed by a diaminobenzidine (DAB) brown chromogen, hematoxylin nuclear counterstain, and then dehydrated and mounted. […] Human CD39 expression was detected in both isotype treated (FIG. 11, panel A and FIG. 12, panel A, low- and high-power magnification, respectively) and anti-CD39 treated tumors (FIG. 11, panel C and […], low- and high-power magnification, respectively), localized to vascular endothelia, infiltrating immune cells, and stromal components of the tumor microenvironment. […]

[3] = Peripheral cytokine levels in plasma (MSD); type: in vivo, mouse; settings: terminal bleed, mice bearing MC38 tumors
Protocol: A terminal bleed of the mice bearing MC38 tumors were collected into BD Vacutainer® Heparin Tubes (BD Biosciences, Cat. No. 367871), centrifuged at 2000×g for 15 minutes, and supernatant plasma samples were collected. Cytokine levels in the plasma samples were analyzed using MSD following manufacturer's instructions. […] Data are presented as mean±SEM with a total of 11-12 mice per treatment group (FIG. 18). Statistical analyses were performed using an ANOVA with Tukey's multiple comparison test.

[4] = tested on: MC38 tumors; assay: MC38 tumor volume in C57BL/6 hCD39KI mice; type: in vivo, mouse; settings: anti-CD39 20 mg/kg loading then 10 mg/kg BIW i.p. with oxaliplatin 5 mg/kg i.p. 1×/week; mixed-effects model
Protocol: (§1) In one experiment, C57BL/6 hCD39KI mice were inoculated with 1 million MC38 cells on day 0. When tumors reached 80 mm^3, mice were dosed intraperitoneally (i.p.) with a loading dose of 20 mg/kg anti-CD39 or isotype control antibody (vehicle: PBS), and then subsequently with 10 mg/kg anti-CD39 or isotype control antibody 2×/week (BIW). Each group consisted of 11-12 mice. […] Oxaliplatin (OXA) treatment, 5 mg/kg i.p. (vehicle: saline), was initiated the day following the anti-CD39 or isotype control loading dose and dosed 1×/week. In a similarly designed experiment, BALB/c hCD39KI mice were inoculated with 4T1 cells on day 0 and treated OXA or anti-CD39 antibody as described for the MC38 model.
(§2) Tumor volume and body weight were measured approximately twice a week (BIW) and are shown in FIG. 10A and FIG. 10B respectively, where the points represent the mean and the errors bars the standard error of the mean (SEM) of the respective metrics from each group of mice. Significance was calculated using a mixed-effects model with multiple comparisons. […] Body weight was stable over the course of the experiment indicating anti-CD39 treatment was well tolerated (FIG. 10B).

[5] = tested on: immune subpopulations in tumor draining lymph nodes; assay: Tumor draining lymph node immune subpopulation percentages; type: in vivo, mouse; settings: single agent or in combination with oxaliplatin
Protocol: (§3) Cell surface CD39 decreases with anti-CD39 treatment in tumor draining lymph nodes of hCD39KI mice. Tumor draining lymph nodes (TLDNs) (right inguinal lymph node) were also collected at the end of the C57BL/6 hCD39KI MC38 mouse study described above. Lymph nodes were dissociated in a 37° C. water bath in RPMI 1640 (Gibco, Cat. No. 11875119) containing of 0.6 mg/mL Collagenase P (Roche, Cat. No. 11213865001), 2.4 mg/mL Dispase II (Sigma, Cat. No. D4693), and 0.3 mg/mL DNAse I (Thermo Scientific, Cat. No. J62229 MB) for 30 minutes with gentle agitation. The dissociated lymph nodes were counted and 2×10^5 cells per well were plated in a 96-well polypropylene v-bottom plate. Cells were washed in PBS (Gibco, Cat. No. 14190-144) and resuspended in a PBS solution containing 1:25 Fc Block (BD, Cat. No. 564220) and 1:250 Near IR Fluorescent Reactive Dye (Invitrogen, Cat. No. L34976A) for 15 minutes in the dark. After the incubation, the cells were stained with an antibody cocktail (Table 20) and incubated for 30 minutes at 4° C. After the incubation, the cells were pelleted, supernatant removed, and 100 μL of fixation buffer (eBioscience, Cat. No. 00-8222-49) was added for 1 hour. […]

[6] = Body weight of hCD39KI MC38 mice; type: in vivo, mouse; settings: over the course of the experiment; C57BL/6 hCD39KI MC38 mice
Protocol: as §1, §2

[7] = target: T2, human CD39; assay: Tumor draining lymph node cell surface CD39; type: in vivo, mouse; settings: tumor draining lymph nodes, hCD39KI MC38 mice
Protocol: as §3

[8] = target: T1, CD39 enzymatic activity; assay: Ex vivo peripheral white blood cell CD39 enzymatic activity; type: in vivo, mouse; settings: white blood cells of 4T1 tumor-bearing hCD39KI mice, 20 μM ATP
Excerpt: To assay peripheral CD39 enzymatic activity, peripheral white blood cells (WBCs) were isolated from terminal blood samples of hCD39KI mice and assayed as generally described for the tumor cell suspensions. Briefly, whole blood samples were mixed with 1×Pharm Lyse red blood cell lysing solution (BD Biosciences, Cat. No. 555899). WBC pellets were then collected after washing with 1×PBS solution and stored in BamBanker cell freezing medium (Bulldog Bio, Cat. No. BB01). To perform the enzymatic inhibition assay, samples were thawed and then cells were plated at 2.5×10^4 cells per well in a 96-well plate. […] All wells were then treated with 20 μM ATP and incubated for 2 hours at room temperature. At the end of the incubation period, the 96-well plate was spun at 1000 rpm for 3 minutes and the supernatant was collected. 2× Kinase-Glo® Plus (Promega, Cat. No. V3771) was then added to the supernatants. ATP levels in the supernatants were then measured by detecting luminescence using Flexstation® 3 microplate reader. Data are presented as relative luminescence units (RLU).

B1: ch39_mIGG2A.AAG: antibody 39 variable regions on mouse IgG2a; HC SEQ ID NO: 41, LC SEQ ID NO: 42; the anti-CD39 of Example 9 (antibody)
heavy: EVQLVESGGGLVQPGRSLKLSCLASGFTFNNYGMNWIRQAPGKGLEWVASFSSSSTYISYADTVKGRFTISRENAKNTLYLQMTSLRSEDTALYYCVRHGRYGGYGGFYFDYWGQGVMVTVSSAKTTAPSVYPLAPVCGDTTGSSVTLGCLVKGYFPEPVTLTWNSGSLSSGVHTFPAVLQSDLYTLSSSVTVTSSTWPSQSITCNVAHPASSTKVDKKIEPRGPTIKPCPPCKCPAPNAAGGPSVFIFPPKIKDVLMISLSPIVTCVVVDVSEDDPDVQISWFVNNVEVHTAQTQTHREDYNSTLRVVSALPIQHQDWMSGKEFKCKVNNKDLGAPIERTISKPKGSVRAPQVYVLPPPEEEMTKKQVTLTCMVTDFMPEDIYVEWTNNGKTELNYKNTEPVLDSDGSYFMYSKLRVEKKNWVERNSYSCSVVHEGLHNHHTTKSFSRTPGK
light: DTVLTQSPALAVSPGERVSISCRASEGVKSYMHWYQQKPGQQPKLLIYKASNLASGVPARFSGSGSGTDFTLTIDPVEADDTATYFCQQSWNDPTFGAGTKLELKRADAAPTVSIFPPSSEQLTSGGASVVCFLNNFYPKDINVKWKIDGSERQNGVLNSWTDQDSKDSTYSMSSTLTLTKDEYERHNSYTCEATHKTSTSPIVKSFNRNEC
Intratumoral CD39 enzymatic activity [1]: inhibited | Lead-phosphate deposition by enzyme histochemistry (CD39 enzymatic activity) [2]: enzymatic activity has been blocked | Peripheral cytokine levels [3]: No elevation | Tumor volume: p for anti-CD39+saline vs. anti-CD39+OXA [4]: 0.0217 | Tumor volume: p for isotype+OXA vs. anti-CD39+OXA [4]: 0.0372 | Immune subpopulation percentages [5]: did not result in significant changes | Immune subpopulation percentages ([5]; listed as anti-CD39): No significant changes | Body weight [6]: stable | Human CD39 on the surface of immune subpopulations [7]: significant reduction; also recorded: significant decrease | Peripheral CD39 enzymatic activity [8]: inhibited
